Source: US20150216948A1, “CYTOCHROME P450 SUICIDE GENE SYSTEM” (priority 2012, published 2015)

How the values were obtained:
HepG2 cells [1] = experiment: 4-IPO toxicity assay: survival of transduced HepG2 cells by flow cytometry (propidium iodine); type: cell-based, human
From the text: Initially, the serine at position 427 in the human CYP4B1 was mutated back to proline (h-P427), which is present at this position in all CYP4B1 proteins. Additionally a proline to serine exchange was created in the native rabbit CYP4B1 enzyme at the corresponding position 422 (r-P422). To immediately exclude the possibility that the different activities between human and the rabbit protein isoforms are simply due to differences in mRNA stability, the human CYP4B1 cDNA (SEQ ID NO.: 2) was optimized for human-codon usage (SEQ ID NO.: 3) by de novo synthesis with silent mutagenesis of the cDNA, thus removing internal TATA-boxes, instability motives, RNA secondary structures and (cryptic) splice donor/acceptor sites and ensuring an average GC content of around 60%. All cDNAs were cloned into the same lentiviral (LV) HIV1-based expression vector and LV supernatants produced by plasmid transfection in HEK293T cells. Subsequently, the two rabbit and the four human cDNAs were stably expressed in the human liver cell line HepG2. Stably expressing transduced cells were challenged after five days with increasing concentrations of 4-IPO for 24, 48 and 72 hours and then the survival of cells analyzed by flow cytometry using propidium iodine for live/dead cell discrimination.
(§1) Next, it was analyzed whether the different activities of the human and the rabbit proteins in processing 4-IPO could be explained by differences in protein half-life. However, as no antibody was available that can detect both CYP4B1 proteins, EGFP fusion constructs were generated. With these constructs, EGFP antibodies can be utilized to visualize and compare the expression levels and the half-lives of the fusion proteins in cells by western blots. EGFP expression can also be used for flow cytometry assessment of the expression levels due to the fluorescent properties of the fusion proteins. 5′- and 3′-fusions of EGFP with the native rabbit P422 and the human P427 CYP4B1 proteins were cloned in LV vectors with an IRES-NEO (NEO=neomycin phosphotransferase cDNA, npt II) and stably expressed in HepG2 cells (FIG. 3 B). For comparison, the corresponding IRES-EGFP constructs were also included, as these vectors had already been used in previous experiments and activity measurements thus already existed. Transduced cells were incubated for 24, 48 and 72 hours with increasing concentration of 4-IPO. Cultures were then harvested, cells stained with propidium iodine and subsequently analyzed for survival of transduced EGFP+ cells by flow cytometry (FIG. 3 A).

HepG2 cells [2] = experiment: Half-life of CYP4B1/EGFP fusion proteins after cycloheximide (western blot, FACS); type: cell-based, human; conditions: EGFP fusion, 50 μg/ml cycloheximide, G418-selected HepG2 cells
Method: FIGS. 3 C and D show CYP4B1 stability as analysed by western blotting and by flow cytometry. The studies on protein expression and stability were performed with the rabbit and human CYP4B1/EGFP fusion construction in the lentiviral vector with the additional IRES-neomycin cassette. Half-life analysis was performed by adding 50 μg/ml cycloheximide to the transduced and G418-selected HepG2 cells. Samples were collected at the indicated time points.
as §1
After standard inhibition of de novo protein synthesis by cycloheximide, the half-life of the CYP4B1 proteins in stably transduced and G418-resistant HepG2 cells was assessed by determining the protein expression levels over time either in western blotting or in FACS analysis as EGFP fluorescence. […] For the human native protein (h-S427), the mean fluorescence indicates a short average half-life of only 6 hours.

primary human T-cells = experiment: 4-IPO toxicity in transduced primary T-cells; type: cell-based; conditions: after 24 hours, 4-IPO, IRES-EGFP-WPRO vector, FIG. 17
From the text: Compared to the HepG2 liver cells, primary T-cells might not provide an optimal environment for the function of P450 cytochromes (although the necessary reductase is ubiquitously expressed) and the infection of primary T-cells is considerably more complex.
The T cells were isolated by Ficoll and stimulated with CD3, CD28 and IL2 for 3 days before they were infected with lentiviral vectors using fibronectin. For optimal toxicity in T cells, the suicide genes were not expressed as EGFP fusions proteins but a IRES-EGFP-WPRO vector construct was used. […] However, after 24 hours over 70% of the transgenic T cells were eliminated by CYP4B1 P427 mut12. […] The determination of the virus titer was based on the titration of the reference cell line HT1080.

B1: r-S422: rabbit CYP4B1 with proline-to-serine exchange at position 422 (protein, UniProt P15128 1-506, looked up, variant P422S)
Cytochrome P450 4B1: MLGFLSRLGLWASGLILILGFLKLLRLLLRRQRLARAMDSFPGPPTHWLFGHALEIQKTGSLDKVVTWTQQFPYAHPLWVGQFIGFLNIYEPDYAKAVYSRGDPKAPDVYDFFLQWIGKGLLVLDGPKWFQHRKLLTPGFHYDVLKPYVAIFADSTRIMLEKWEKKACEGKSFDIFSDVGHMALDTLMKCTFGKGDSGLNHRDSSYYVAVSELTLLMQQRIDSFQYHNDFIYWLTPHGRRFLRACRAAHDHTDRVIRQRKAALQDEKEREKIQNRRHLDFLDILLDVRGESGVQLSDTDLRAEVDTFMFEGHDTTTSGISWFLYCMALYPEHQQRCREEVREILGDQDSFQWEDLAKMTYLTMCMKECFRLYPPVPQVYRQLSKPVSFVDGRSLPAGSLISLHIYALHRNSDVWPDPEVFDSLRFSPENSSGRHPYAFIPFSAGPRNCIGQQFAMNEMKVVTALCLLRFEFSVDPLRLPIKLPQLVLRSKNGIHLYLKPLGPKAEK
- transduced HepG2 cells eliminated / dead (HepG2 cells [1]; after 24 hours of 4-IPO treatment, FIG. 2): 73%
- protein half-life (HepG2 cells [2]): approx. 30 hours

B2: CYP4B1 P427 mut12: modified human CYP4B1 P427 protein comprising 12 further amino acid exchanges found in other human CYP4 proteins (protein)
chain: MVPSFLSLSFSSLGLWASGLILVLGFLKLIHLLLRRQTLAKAMDKFPGPPTHWLFGHALEIQETGSLDKVVSWAHQFPYAHPLWFGQFIGFLNIYEPDYAKAVYSRGDPKAPDVYDFFLQWIGKGLLVLDGPKWFQHRKLLTPGFHYDVLKPYVAIFADSTRIMLDKWEKKAREGKSFDIFCDVGHMALDTLMKCTFGKGDSGLGHRDSSYYLAVSELTLLMQQRIVSFQYHNDFIYWLTPHGRRFLRACQVAHDHTDQVIRERKAALQDEKVRKKIQNRRHLDFLDILLGARDEDDIKLSDADLRAEVDTFMFEGHDTTTSGISWFLYCMALYPEHQHRCREEVREILGDQDFFQWDDLGKMTYLTMCIKESFRLYPPVPQVYRQLSKPVTFVDGRSLPAGSLISMHIYALHRNSAVWPDPEVFDPLRFSTENASKRHPFAFMPFSAGPRNCIGQQFAMSEMKVVTAMCLLRFEFSLDPSRLPIKMPQLVLRSKNGFHLHLKPLGPGSGK
- transgenic T cells eliminated (primary human T-cells): over 70%
- 4-IPO processing activity / cell killing (in words) (HepG2 cells [1]; transduced cells challenged with 4-IPO): equally good killing curve as the modified human CYP4B1 P427 mut18

B3: coop H-P427: h-P427 expressed from cDNA optimized for human codon usage (protein, listed as Homo sapiens)
chain: MVPSFLSLSFSSLGLWASGLILVLGFLKLIHLLLRRQTLAKAMDKFPGPPTHWLFGHALEIQETGSLDKVVSWAHQFPYAHPLWFGQFIGFLNIYEPDYAKAVYSRGDPKAPDVYDFFLQWIGRGLLVLEGPKWLQHRKLLTPGFHYDVLKPYVAVFTESTRIMLDKWEEKAREGKSFDIFCDVGHMALNTLMKCTFGRGDTGLGHRDSSYYLAVSDLTLLMQQRLVSFQYHNDFIYWLTPHGRRFLRACQVAHDHTDQVIRERKAALQDEKVRKKIQNRRHLDFLDILLGARDEDDIKLSDADLRAEVDTFMFEGHDTTTSGISWFLYCMALYPEHQHRCREEVREILGDQDFFQWDDLGKMTYLTMCIKESFRLYPPVPQVYRQLSKPVTFVDGRSLPAGSLISMHIYALHRNSAVWPDPEVFDSLRFSTENASKRHPFAFMPFSAGPRNCIGQQFAMSEMKVVTAMCLLRFEFSLDPSRLPIKMPQLVLRSKNGFHLHLKPLGPGSGK
- cell survival rates upon administration of 4-IPO (HepG2 cells [1]; transduced cells, FIG. 2): 37%
